The results in this text go back to article PMC7808939.

Assay [1] addresses Fbxl8 (UniProt Q8CIG9). Nature of the assay: anti-HA co-IP, blot for cyclin D3. The settings on record: reference: wild type Flag-cyclin D3; sites T283.
Assay [2] concerns the target Fbxl8 (UniProt Q8CIG9). Briefly: co-immunoprecipitation. The settings on record: reference: wild type cyclin D3; sites T283.

Consider “cyclin D3 (from UniProt P30282) Flag-cyclin D3 T283A”, for which the “binding against the reference” value with Fbxl8 [1] was “weaker”.

With cyclin D3 (from UniProt P30282) T283A, in the assay with Fbxl8 [2], the “binding against the reference” value is given as “lost”.
